Data: patent US6312887, “Method of using a crystal of the N-terminal domain of a signal transducer and activator of transcription” (The Rockefeller University)

Biological target: STAT-1alpha wild type (Tyr-phosphorylated) (Homo sapiens, UniProt P42224 P42224:2-750)
Assay: EMSA
Settings: tags: in vitro Tyr-phosphorylated with EGF-receptor kinase; chain copies: 4 on tandem site (two dimers), stated; 2 on single site; label: radiolabel
Procedure: Both protein preparations (Tyr-phosphorylated wild type STAT-1α and W37A mutant) were titrated in gel shift experiments with an oligonucleotide containing a single M67 site (5'-GCCGAT TTCCCGTAAATCAT-3', SEQ ID NO:5) [Wagner et al., *EMBO J.* 9:4477 (1990)] to assure similar loading of active protein. A 12.5 μl reaction volume contained DNA binding buffer (20 mM Hepes/HCl, 4% Ficoll, 40 mM KCl, 10 mM MgCl_2, 10 mM CaCl_2, 1 mM DTT) radiolabelled DNA at a final concentration of 1×10^-10 M unless stated otherwise, 50 ng dIdC, 0.2 mg/ml BSA (Boebringer Mannheim), and the indicated amount of purified phosphorylated STAT protein. The reaction volume was mixed and then incubated at room temperature. The time necessary to reach equilibrium was assessed by EMSA [(Stone et al., in Jost, J.P. & Saluz, H.P. (eds) *A Laboratory Guide to In Vitro Studies of Protein-DNA Interactions* BioMethods, vol.5:163–195 (1991)]. For all DNA fragments tested, equilibrium turned out to be fully established at the earliest timepoint that can be determined by this technique (30 sec). Therefore incubation periods of 5–15 minutes were chosen. Reaction products were loaded onto a 4% polyacrylamide gel (1.5 mm thick) containing 0.25×Tris-borate-EDTA which had been pre-run at 20V/cm for 2 hours at 4° C. Electrophoresis was continued for 60 minutes at 4° C. […]

Chain of STAT-1alpha wild type (Tyr-phosphorylated) (P42224 2-750, one chain of several): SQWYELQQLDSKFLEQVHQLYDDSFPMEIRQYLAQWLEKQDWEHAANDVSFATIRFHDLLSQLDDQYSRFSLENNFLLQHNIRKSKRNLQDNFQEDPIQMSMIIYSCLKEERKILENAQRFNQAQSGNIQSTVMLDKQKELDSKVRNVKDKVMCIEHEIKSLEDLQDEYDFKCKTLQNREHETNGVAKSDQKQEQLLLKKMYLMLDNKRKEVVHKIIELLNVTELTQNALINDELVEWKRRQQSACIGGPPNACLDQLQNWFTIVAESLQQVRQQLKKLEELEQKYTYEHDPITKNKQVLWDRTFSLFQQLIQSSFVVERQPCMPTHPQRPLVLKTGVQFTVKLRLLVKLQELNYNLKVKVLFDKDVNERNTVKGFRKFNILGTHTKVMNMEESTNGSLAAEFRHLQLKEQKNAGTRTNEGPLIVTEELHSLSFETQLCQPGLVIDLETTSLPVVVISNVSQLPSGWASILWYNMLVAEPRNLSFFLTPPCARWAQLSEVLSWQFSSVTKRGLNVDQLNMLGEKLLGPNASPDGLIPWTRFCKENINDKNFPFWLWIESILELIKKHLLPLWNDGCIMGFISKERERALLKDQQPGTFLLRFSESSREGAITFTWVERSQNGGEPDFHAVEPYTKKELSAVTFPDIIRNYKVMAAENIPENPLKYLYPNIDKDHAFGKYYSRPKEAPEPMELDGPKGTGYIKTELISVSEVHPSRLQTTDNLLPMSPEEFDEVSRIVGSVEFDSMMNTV

B1: tandem c-fos STAT recognition element, 10 bp spacing (dsDNA)
DNA 1: GCCAGTCAGTTCCCGTCAATGCATCAGGTTCCCGTCAATGCAT
DNA 2: ATGCATTGACGGGAACCTGATGCATTGACGGGAACTGACTGGC
B1: binds.
